Test system: Escherichia coli TOP10
Test: shrunken log2 fold change of peptide-encoding DNA abundance (4.5 h post-induction vs induction); higher = less antimicrobial activity (less host growth inhibition)
Conditions: time post-induction: 4.5 h; library: site-saturation at positions 5, 18, 19, 20
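Further: peptides expressed intracellularly from a pBAD plasmid library in pooled LB shake-flask culture, induced with 0.3% L-arabinose, DNA abundance read by NGS, three biological replicates, DESeq2 with apeglm shrinkage.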

| Sequence | shrunken log2 fold change |
| --- | --- |
| RRIRKRPPRLPRPRPRPWVQPRP | 0.0916 |
| RRIRKRPPRLPRPRPRPWWRPRP | -0.108 |
| RRIRKRPPRLPRPRPRPWYAPRP | -0.132 |
| RRIRKRPPRLPRPRPRPWYCPRP | -0.339 |
| RRIRKRPPRLPRPRPRPYCYPRP | -0.182 |
| RRIRKRPPRLPRPRPRPYDAPRP | -0.252 |
| RRIRKRPPRLPRPRPRPYDIPRP | -0.119 |
| RRIRKRPPRLPRPRPRPYDPPRP | 0.0113 |
| RRIRKRPPRLPRPRPRPYDTPRP | -0.246 |
| RRIRKRPPRLPRPRPRPYEAPRP | -0.325 |
| RRIRKRPPRLPRPRPRPYFMPRP | -0.501 |
| RRIRKRPPRLPRPRPRPYFQPRP | -0.265 |
| RRIRKRPPRLPRPRPRPYGLPRP | 0.0165 |
| RRIRKRPPRLPRPRPRPYHEPRP | -0.112 |
| RRIRKRPPRLPRPRPRPYKGPRP | -0.185 |
| RRIRKRPPRLPRPRPRPYLTPRP | -0.413 |
| RRIRKRPPRLPRPRPRPYMVPRP | -0.211 |
| RRIRKRPPRLPRPRPRPYNMPRP | -0.352 |
| RRIRKRPPRLPRPRPRPYNYPRP | -0.898 |
| RRIRKRPPRLPRPRPRPYPWPRP | -0.4 |
| RRIRKRPPRLPRPRPRPYQLPRP | -0.0193 |
| RRIRKRPPRLPRPRPRPYRAPRP | -0.117 |
| RRIRKRPPRLPRPRPRPYRCPRP | -0.12 |
| RRIRKRPPRLPRPRPRPYREPRP | -0.0243 |
| RRIRKRPPRLPRPRPRPYSRPRP | -0.0735 |

| Sequence | shrunken log2 fold change |
| --- | --- |
| RRIRKRPPRLPRPRPRPYTEPRP | -0.295 |
| RRIRKRPPRLPRPRPRPYVFPRP | -0.0884 |
| RRIRKRPPRLPRPRPRPYVLPRP | -0.234 |
| RRIRKRPPRLPRPRPRPYWSPRP | -0.153 |
| RRIRKRPPRLPRPRPRPYYNPRP | -0.197 |
| RRIRLRPPRLPRPRPRPAALPRP | 0.182 |
| RRIRLRPPRLPRPRPRPAAPPRP | 0.545 |
| RRIRLRPPRLPRPRPRPAARPRP | 0.453 |
| RRIRLRPPRLPRPRPRPACKPRP | 0.00454 |
| RRIRLRPPRLPRPRPRPADGPRP | -0.082 |
| RRIRLRPPRLPRPRPRPADQPRP | 0.0203 |
| RRIRLRPPRLPRPRPRPADVPRP | -0.0469 |
| RRIRLRPPRLPRPRPRPAEGPRP | 0.242 |
| RRIRLRPPRLPRPRPRPAESPRP | 0.197 |
| RRIRLRPPRLPRPRPRPAEVPRP | -0.193 |
| RRIRLRPPRLPRPRPRPAGAPRP | 0.632 |
| RRIRLRPPRLPRPRPRPAGNPRP | 0.116 |
| RRIRLRPPRLPRPRPRPAGRPRP | 0.0831 |
| RRIRLRPPRLPRPRPRPAGWPRP | 0.712 |
| RRIRLRPPRLPRPRPRPAHYPRP | -0.147 |
| RRIRLRPPRLPRPRPRPALLPRP | 0.295 |
| RRIRLRPPRLPRPRPRPAMNPRP | -0.397 |
| RRIRLRPPRLPRPRPRPAMTPRP | -0.113 |
| RRIRLRPPRLPRPRPRPANRPRP | -0.133 |
| RRIRLRPPRLPRPRPRPAPDPRP | 0.215 |

| Sequence | shrunken log2 fold change |
| --- | --- |
| RRIRLRPPRLPRPRPRPAPKPRP | 0.659 |
| RRIRLRPPRLPRPRPRPAQPPRP | 0.0855 |
| RRIRLRPPRLPRPRPRPAQTPRP | -0.00496 |
| RRIRLRPPRLPRPRPRPARIPRP | 0.00509 |
| RRIRLRPPRLPRPRPRPARMPRP | 0.386 |
| RRIRLRPPRLPRPRPRPASTPRP | 0.0489 |
| RRIRLRPPRLPRPRPRPATIPRP | -0.0972 |
| RRIRLRPPRLPRPRPRPAWEPRP | 0.185 |
| RRIRLRPPRLPRPRPRPAYLPRP | -0.304 |
| RRIRLRPPRLPRPRPRPAYNPRP | -0.119 |
| RRIRLRPPRLPRPRPRPAYSPRP | -0.354 |
| RRIRLRPPRLPRPRPRPCAPPRP | 0.00325 |
| RRIRLRPPRLPRPRPRPCCFPRP | -0.0513 |
| RRIRLRPPRLPRPRPRPCCKPRP | -0.102 |
| RRIRLRPPRLPRPRPRPCCVPRP | 0.0472 |
| RRIRLRPPRLPRPRPRPCDAPRP | -0.105 |
| RRIRLRPPRLPRPRPRPCETPRP | -0.155 |
| RRIRLRPPRLPRPRPRPCFRPRP | 0.0965 |
| RRIRLRPPRLPRPRPRPCFWPRP | 0.14 |
| RRIRLRPPRLPRPRPRPCHEPRP | 0.0247 |
| RRIRLRPPRLPRPRPRPCHRPRP | 0.00936 |
| RRIRLRPPRLPRPRPRPCIHPRP | -0.392 |
| RRIRLRPPRLPRPRPRPCIKPRP | -0.752 |
| RRIRLRPPRLPRPRPRPCIWPRP | -0.21 |
| RRIRLRPPRLPRPRPRPCKGPRP | -0.0757 |
